Assay [1] concerns the target T1, human FGFR1c (human, UniProt P11362 22-822).
T1 construct: Full length (GenBank NP-075598), expressed on transfected 293T cells; also called huFGFR1c; FGFR1c alone
The assay is described as follows: flow cytometry, transfected HEK293T.

Assay [2] addresses T2, huBeta_Klotho (1-521, 738-1044) (muBeta KLOTHO 520P-735A) (human; murine, UniProt Q86Z14 1-1044).
T2 construct: also called Chimera 9; Construct 9
Kind of assay: flow cytometry, transfected HEK-293T.
Description: (§1) This solution was then added dropwise to 10 million HEK293T cells in 10 ml of media. 24 hours following transfection, the cells were washed and 50,000 cells were stained with each primary antibody, 50 μl of unpurified hybridoma supernatant was diluted 1:2 and used for staining cells. After a one hour incubation at 4° c., the cells were washed and an anti-Human Fc-specific secondary was added. Stained cells were then analyzed on a flow cytometer.

The target of a further assay is T3, murine β-Klotho (murine, UniProt Q99N32 1-1043).
T3 construct: Full length (GenBank NP-112457), transiently expressed on HEK-293T cells; also called mu β-klotho; mouse β-Klotho
T3 sequence: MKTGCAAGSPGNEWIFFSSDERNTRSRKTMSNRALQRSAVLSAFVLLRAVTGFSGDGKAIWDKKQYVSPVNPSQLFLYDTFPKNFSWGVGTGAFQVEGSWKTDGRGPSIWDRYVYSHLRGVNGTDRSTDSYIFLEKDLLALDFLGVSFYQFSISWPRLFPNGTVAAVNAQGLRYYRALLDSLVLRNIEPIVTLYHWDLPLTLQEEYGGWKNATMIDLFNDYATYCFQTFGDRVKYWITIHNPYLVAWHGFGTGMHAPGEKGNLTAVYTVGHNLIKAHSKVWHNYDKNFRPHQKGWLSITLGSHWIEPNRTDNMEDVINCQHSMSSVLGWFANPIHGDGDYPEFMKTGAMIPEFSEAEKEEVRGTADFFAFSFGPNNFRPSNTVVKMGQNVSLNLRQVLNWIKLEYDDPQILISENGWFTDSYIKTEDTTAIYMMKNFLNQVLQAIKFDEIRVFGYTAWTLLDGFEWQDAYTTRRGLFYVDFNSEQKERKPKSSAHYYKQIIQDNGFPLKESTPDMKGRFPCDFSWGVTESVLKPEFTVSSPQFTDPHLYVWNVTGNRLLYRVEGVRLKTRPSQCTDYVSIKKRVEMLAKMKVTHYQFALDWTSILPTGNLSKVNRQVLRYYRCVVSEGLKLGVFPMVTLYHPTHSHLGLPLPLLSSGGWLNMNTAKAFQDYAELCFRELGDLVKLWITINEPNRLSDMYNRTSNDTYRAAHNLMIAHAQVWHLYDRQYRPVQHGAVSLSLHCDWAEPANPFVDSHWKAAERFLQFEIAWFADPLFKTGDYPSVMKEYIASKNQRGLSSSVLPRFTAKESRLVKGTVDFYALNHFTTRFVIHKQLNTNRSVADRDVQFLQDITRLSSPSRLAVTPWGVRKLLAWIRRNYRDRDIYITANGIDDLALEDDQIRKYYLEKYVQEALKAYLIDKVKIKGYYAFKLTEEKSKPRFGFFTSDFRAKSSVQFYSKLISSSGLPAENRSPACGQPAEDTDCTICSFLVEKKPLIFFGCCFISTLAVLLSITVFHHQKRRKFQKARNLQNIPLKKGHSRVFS
Kind of assay: flow cytometry, transfected HEK-293T.

The target in assay [3] is T4, huBeta_Klotho (1-81, 523-1044) (muBetaKLOTHO 82-520) (human; murine, UniProt Q86Z14 1-1044).
T4 construct: Expressed on HEK-293T cells; also called Chimera 1; Construct 1
T4 chain: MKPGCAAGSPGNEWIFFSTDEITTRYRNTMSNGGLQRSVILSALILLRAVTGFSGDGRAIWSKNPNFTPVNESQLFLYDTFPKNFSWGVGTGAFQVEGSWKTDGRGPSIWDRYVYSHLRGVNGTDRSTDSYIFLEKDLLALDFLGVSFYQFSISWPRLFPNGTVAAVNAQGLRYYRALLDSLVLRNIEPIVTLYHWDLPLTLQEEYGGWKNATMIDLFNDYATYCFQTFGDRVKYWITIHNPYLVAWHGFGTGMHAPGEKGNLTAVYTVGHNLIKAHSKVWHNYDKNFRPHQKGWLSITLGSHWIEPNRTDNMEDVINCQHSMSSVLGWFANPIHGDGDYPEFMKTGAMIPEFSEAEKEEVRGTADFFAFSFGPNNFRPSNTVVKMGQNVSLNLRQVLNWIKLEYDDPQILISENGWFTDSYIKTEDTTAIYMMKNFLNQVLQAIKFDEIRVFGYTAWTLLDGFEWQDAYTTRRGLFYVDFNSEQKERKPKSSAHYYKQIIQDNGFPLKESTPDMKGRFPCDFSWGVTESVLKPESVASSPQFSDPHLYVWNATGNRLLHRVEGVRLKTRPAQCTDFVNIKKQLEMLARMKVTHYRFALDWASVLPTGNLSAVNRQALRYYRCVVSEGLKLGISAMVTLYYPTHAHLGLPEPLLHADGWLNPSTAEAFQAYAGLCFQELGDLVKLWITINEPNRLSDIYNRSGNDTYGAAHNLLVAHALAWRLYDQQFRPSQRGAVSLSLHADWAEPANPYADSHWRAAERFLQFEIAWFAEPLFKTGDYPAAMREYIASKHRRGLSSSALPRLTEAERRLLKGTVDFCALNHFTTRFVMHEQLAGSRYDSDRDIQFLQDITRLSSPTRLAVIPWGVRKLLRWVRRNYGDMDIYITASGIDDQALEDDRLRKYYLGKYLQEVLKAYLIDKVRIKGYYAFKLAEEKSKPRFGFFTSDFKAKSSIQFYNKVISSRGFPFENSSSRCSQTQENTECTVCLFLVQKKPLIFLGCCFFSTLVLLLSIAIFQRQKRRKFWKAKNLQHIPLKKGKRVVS
The assay is described as follows: flow cytometry, transfected HEK-293T.
Description: as §1

For assay [4], the target named is T1, human FGFR1c. Kind of assay: flow cytometry, transfected HEK293T; mock-transfected cells 648.
Description: as §1
The target in assay [5] is T5, human FGFR1c/human β-Klotho complex (FGF21 receptor) (human, UniProt P11362 22-822).
T5 construct: Both full-length proteins co-expressed on cells (HEK293T, CHO, L6); also called HuFGFR1c/Hu β-Klotho; huFGF21R
The assay is described as above.
Description: as §1

The target of assay [6] is T6, cynomologous monkey FGFR1c/cynomologous monkey β-Klotho (co-transfected) (cynomologous monkey).
T6 construct: whole, on cells; also called Cyno FGFR1c/Cyno β-Klotho
The assay is described as above.
Description: as §1

In assay [7] the target is T1, human FGFR1c. Kind of assay: flow cytometry, transfected HEK293T; mock-transfected cells 695.
Description: as §1
The target in assay [8] is T5, human FGFR1c/human β-Klotho complex …. The assay is described as above.
Description: as §1
For assay [9], the target named is T6, cynomologous monkey FGFR1c/cynomologous …. The description is as above.
Description: as §1

Where a chain is given by its changes, count along the chain named.

Description for murine β-Klotho: as §1

B1: 65C3.1 (antibody, V domains shown)
VH: QVQLQESGPGLVKPSETLSLTCTVSGGSISSYYWSWIRQPPGKGLEWIGYIYYTGSTNYNPSLKSRVTISVDTSKNQFSLKLSSVTAADTAVYYCAREYYYGSGSYYPWGQGTLVTVSS
VL: EMVMTQSPATLSVSPGERATLSCRASQSVSSQLAWYQEKPGRAPRLLIYGASNRAIDIPARLSGSGSGTEFTLTISSLQSEDFAVYYCQQYNNWPWTFGQGTKVEFKR
B1: the binding result is reported as “no binding” in the assay with human FGFR1c [1], “binds” in assay [2], “no binding” in the assay with murine β-Klotho and “binds” in assay [3].

B2: 67F5.1 (antibody, V domains shown)
VH: B1 VH with Q5K, T54S, S56N
VL: EIVMTQSPATLSVSPGERVTLSCRASQSVSSNLAWYQQKPGQAPRLLIHGSSNRAIGIPARFSGSGSGTEFTLTISSLQSADFAVYNCQQYEIWPWTFGQGTKVEIKR
Turning to B2, the binding result in the assay with human FGFR1c [1] was “no binding”; in assay [2] it was “no binding”; with murine β-Klotho, “no binding”; in assay [3], “binds”.

B3: 67C10.1 (antibody, V domains shown)
VH: EVQLVQSGAEVKKPGESLKISCQGSGYSFSSYWIGWVRQMPGKGLEWMGIIYPGDSDTRYSPSFQGQVTISADKSINTAYLQWSSLKASDTAIYYCARRASRGYRYGLAFAIWGQGTMVTVSS
VL: DFVMTQTPLSLPVTPGEPASISCRSSQSLLNSDDGNTYLDWYLQKPGQSPQLLIYTLSYRASGVPDRFSGSGSGTDFTLKISRVEAEDVGVYYCMQRIEFPITFGQGTRLEIKR
Take B3: the binding result with human FGFR1c [1] is on record as “no binding”; in assay [2], “no binding”; with murine β-Klotho, “no binding”; in assay [3], “binds”.

B4: 49G3.3 (antibody, V domains shown)
VH: QVTLKESGPVLVKPTETLTLTCTVSGFSLSNPRMGVSWIRQPPGKALEWLTHIFSNDEKSYSTSLKSRLTISKDTSKSQVVLSMTNMDPVDTATYYCVRVDTLNYHYYGMDVWGQGTTVTVSS
VL: DIQMTQSPSSLSASIGDRVTITCQASQGISNYLNWYQQKPGKAPKLLIYDASNLETGVPSRFSGSGSGTDFTFTISSLQPEDIATYYCHQYDDLPLTFGGGTKVEIRR
As to B4, the binding result in the assay with human FGFR1c [1] was “no binding”; in assay [2] it was “binds”; with murine β-Klotho, “no binding”; in assay [3], “no binding”. The GeoMean was determined as 706 in the assay with human FGFR1c [4], 17900 in assay [5] and 25900 in assay [6].

B5: 51E5.1 (antibody, V domains shown)
VH: QVQLQQWGAGLLKPSETLSLTCAVYGGSFSGYYWSWIRQPPGKGLEWIGELDHSGSINYNPSLKSRVTISVDTSKNQFSLKLTSVTAADTAVYYCARVLGSTLDYWGQGTLVTVSS
VL: DIQMTQSPSSLSASVGDRVTITCRASQDIRNDLGWYQQKPGKAPNRLIYAASSLQFGVPSRFSGSGSGTEFTLTISSLQPEDFATYYCLQHSSYPLTFGGGTRVEIKR
As to B5, the binding result was “no binding” with human FGFR1c [1], “no binding” in assay [2], “no binding” in the assay with murine β-Klotho and “binds” in [3].

B6: 66G2.1 (antibody, V domains shown)
VH: QVQLVESGGGVVQPGRSLRLSCAASGFTFSSYGMHWVRQAPGKGLEWVAGISYDGSNKNYADSVKGRITISRDNPKNTLYLQMNSLRAEDTAVYYCATTVTKEDYYYYGMDVWGQGTTVTVSS
VL: B5 VL with D28G, N45K, S53N, F56S, E70K, S76N, H91L, S92N, S93G, R103K
As to B6, the binding result is listed as “no binding” with human FGFR1c [1], “no binding” in [2], “no binding” in the assay with murine β-Klotho and “binds” in assay [3]. Further, the GeoMean with human FGFR1c [7] is 780; in assay [8], 16700; in assay [9], 21600.

(Values after patent US20120328616A1 (Amgen, published 2012).)
